T1: GST-clathrin 1–494 (human, UniProt Q00610 1-494)
T1 construct: clathrin, human, residues 1-494, in pGEX-6P1; source: E. coli BL21, purified (glutathione-Sepharose 4B, eluted with GSH); not shown: GST, N-terminal, kept
T1 sequence (looked up): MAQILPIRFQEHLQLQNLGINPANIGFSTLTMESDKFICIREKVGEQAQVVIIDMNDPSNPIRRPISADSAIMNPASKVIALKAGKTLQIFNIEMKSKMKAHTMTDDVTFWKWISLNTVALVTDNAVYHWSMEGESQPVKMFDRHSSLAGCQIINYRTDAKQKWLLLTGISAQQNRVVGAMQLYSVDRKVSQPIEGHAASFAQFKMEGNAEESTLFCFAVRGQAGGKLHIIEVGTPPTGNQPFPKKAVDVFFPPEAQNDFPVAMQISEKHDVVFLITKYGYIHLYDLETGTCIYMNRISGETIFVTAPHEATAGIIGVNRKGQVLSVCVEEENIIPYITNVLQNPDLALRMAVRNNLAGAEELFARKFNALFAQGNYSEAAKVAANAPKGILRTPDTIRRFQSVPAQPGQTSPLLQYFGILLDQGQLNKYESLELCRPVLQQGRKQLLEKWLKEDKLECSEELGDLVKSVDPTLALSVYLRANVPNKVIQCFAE


The binders below were run against T1, GST-clathrin 1–494 (assay: pull-down; β-arrestin-1-F2Y mutants (300 nM) incubated with equal concentrations of GST-clathrin and V2R-phospho-peptide (V2Rpp), or without peptide; pulled down with GST beads; bound β-arrestin-1 detected by western blot with a β-arrestin-1 antibody). Conditions: both partners purified.

Binder	binding result
β-arrestin-1-L338-F2Y (natural protein, bovine, UniProt P17870 1-418, looked up, 3,5-difluorotyrosine (F2Y) at 338, β-arrestin-1, bovine, full-length cDNA in pET22b, amber codon at L338 read as F2Y; also called F2Y-L338; source: E. coli BL21 (DE3) with pEVOL-F2YRS and F2Y in the medium, purified (Ni-NTA, gel filtration)) MGDKGTRVFKKASPNGKLTVYLGKRDFVDHIDLVEPVDGVVLVDPEYLKERRVYVTLTCAFRYGREDLDVLGLTFRKDLFVANVQSFPPAPEDKKPLTRLQERLIKKLGEHAYPFTFEIPPNLPCSVTLQPGPEDTGKACGVDYEVKAFCAENLEEKIHKRNSVRLVIRKVQYAPERPGPQPTAETTRQFLMSDKPLHLEASLDKEIYYHGEPISVNVHVTNNTNKTVKKIKISVRQYADICLFNTAQYKCPVAMEEADDTVAPSSTFCKVYTLTPFLANNREKRGLALDGKLKHEDTNLASSTLLREGANREILGIIVSYKVKVKLVVSRGGLLGDYASSDVAVELPFTLMHPKPKEEPPHREVPEHETPVDTNLIELDTNDDDIVFEDFARQRLKGMKDDKEEEEDGTGSPRLNDR	binds
β-arrestin-1-K138-F2Y (natural protein, bovine, UniProt P17870 1-418, looked up, 3,5-difluorotyrosine (F2Y) at 138, β-arrestin-1, bovine, full-length cDNA in pET22b, amber codon at K138 read as F2Y; source: E. coli BL21 (DE3) with pEVOL-F2YRS and F2Y in the medium, purified (Ni-NTA, gel filtration)) MGDKGTRVFKKASPNGKLTVYLGKRDFVDHIDLVEPVDGVVLVDPEYLKERRVYVTLTCAFRYGREDLDVLGLTFRKDLFVANVQSFPPAPEDKKPLTRLQERLIKKLGEHAYPFTFEIPPNLPCSVTLQPGPEDTGYACGVDYEVKAFCAENLEEKIHKRNSVRLVIRKVQYAPERPGPQPTAETTRQFLMSDKPLHLEASLDKEIYYHGEPISVNVHVTNNTNKTVKKIKISVRQYADICLFNTAQYKCPVAMEEADDTVAPSSTFCKVYTLTPFLANNREKRGLALDGKLKHEDTNLASSTLLREGANREILGIIVSYKVKVKLVVSRGGLLGDLASSDVAVELPFTLMHPKPKEEPPHREVPEHETPVDTNLIELDTNDDDIVFEDFARQRLKGMKDDKEEEEDGTGSPRLNDR	binds
β-arrestin-1-T136-F2Y (natural protein, bovine, UniProt P17870 1-418, looked up, 3,5-difluorotyrosine (F2Y) at 136, β-arrestin-1, bovine, full-length cDNA in pET22b, amber codon at T136 read as F2Y; also called F2Y-T136; source: E. coli BL21 (DE3) with pEVOL-F2YRS and F2Y in the medium, purified (Ni-NTA, gel filtration)) MGDKGTRVFKKASPNGKLTVYLGKRDFVDHIDLVEPVDGVVLVDPEYLKERRVYVTLTCAFRYGREDLDVLGLTFRKDLFVANVQSFPPAPEDKKPLTRLQERLIKKLGEHAYPFTFEIPPNLPCSVTLQPGPEDYGKACGVDYEVKAFCAENLEEKIHKRNSVRLVIRKVQYAPERPGPQPTAETTRQFLMSDKPLHLEASLDKEIYYHGEPISVNVHVTNNTNKTVKKIKISVRQYADICLFNTAQYKCPVAMEEADDTVAPSSTFCKVYTLTPFLANNREKRGLALDGKLKHEDTNLASSTLLREGANREILGIIVSYKVKVKLVVSRGGLLGDLASSDVAVELPFTLMHPKPKEEPPHREVPEHETPVDTNLIELDTNDDDIVFEDFARQRLKGMKDDKEEEEDGTGSPRLNDR	binds
β-arrestin-1-K11-F2Y (natural protein, bovine, UniProt P17870 1-418, looked up, 3,5-difluorotyrosine (F2Y) at 11, β-arrestin-1, bovine, full-length cDNA in pET22b, amber codon at K11 read as F2Y; source: E. coli BL21 (DE3) with pEVOL-F2YRS and F2Y in the medium, purified (Ni-NTA, gel filtration)) MGDKGTRVFKYASPNGKLTVYLGKRDFVDHIDLVEPVDGVVLVDPEYLKERRVYVTLTCAFRYGREDLDVLGLTFRKDLFVANVQSFPPAPEDKKPLTRLQERLIKKLGEHAYPFTFEIPPNLPCSVTLQPGPEDTGKACGVDYEVKAFCAENLEEKIHKRNSVRLVIRKVQYAPERPGPQPTAETTRQFLMSDKPLHLEASLDKEIYYHGEPISVNVHVTNNTNKTVKKIKISVRQYADICLFNTAQYKCPVAMEEADDTVAPSSTFCKVYTLTPFLANNREKRGLALDGKLKHEDTNLASSTLLREGANREILGIIVSYKVKVKLVVSRGGLLGDLASSDVAVELPFTLMHPKPKEEPPHREVPEHETPVDTNLIELDTNDDDIVFEDFARQRLKGMKDDKEEEEDGTGSPRLNDR	binds
β-arrestin-1-K107-F2Y (natural protein, bovine, UniProt P17870 1-418, looked up, 3,5-difluorotyrosine (F2Y) at 107, β-arrestin-1, bovine, full-length cDNA in pET22b, amber codon at K107 read as F2Y; source: E. coli BL21 (DE3) with pEVOL-F2YRS and F2Y in the medium, purified (Ni-NTA, gel filtration)) MGDKGTRVFKKASPNGKLTVYLGKRDFVDHIDLVEPVDGVVLVDPEYLKERRVYVTLTCAFRYGREDLDVLGLTFRKDLFVANVQSFPPAPEDKKPLTRLQERLIKYLGEHAYPFTFEIPPNLPCSVTLQPGPEDTGKACGVDYEVKAFCAENLEEKIHKRNSVRLVIRKVQYAPERPGPQPTAETTRQFLMSDKPLHLEASLDKEIYYHGEPISVNVHVTNNTNKTVKKIKISVRQYADICLFNTAQYKCPVAMEEADDTVAPSSTFCKVYTLTPFLANNREKRGLALDGKLKHEDTNLASSTLLREGANREILGIIVSYKVKVKLVVSRGGLLGDLASSDVAVELPFTLMHPKPKEEPPHREVPEHETPVDTNLIELDTNDDDIVFEDFARQRLKGMKDDKEEEEDGTGSPRLNDR	binds
β-arrestin-1-K294-F2Y (natural protein, bovine, UniProt P17870 1-418, looked up, 3,5-difluorotyrosine (F2Y) at 294, β-arrestin-1, bovine, full-length cDNA in pET22b, amber codon at K294 read as F2Y; source: E. coli BL21 (DE3) with pEVOL-F2YRS and F2Y in the medium, purified (Ni-NTA, gel filtration)) MGDKGTRVFKKASPNGKLTVYLGKRDFVDHIDLVEPVDGVVLVDPEYLKERRVYVTLTCAFRYGREDLDVLGLTFRKDLFVANVQSFPPAPEDKKPLTRLQERLIKKLGEHAYPFTFEIPPNLPCSVTLQPGPEDTGKACGVDYEVKAFCAENLEEKIHKRNSVRLVIRKVQYAPERPGPQPTAETTRQFLMSDKPLHLEASLDKEIYYHGEPISVNVHVTNNTNKTVKKIKISVRQYADICLFNTAQYKCPVAMEEADDTVAPSSTFCKVYTLTPFLANNREKRGLALDGKLYHEDTNLASSTLLREGANREILGIIVSYKVKVKLVVSRGGLLGDLASSDVAVELPFTLMHPKPKEEPPHREVPEHETPVDTNLIELDTNDDDIVFEDFARQRLKGMKDDKEEEEDGTGSPRLNDR	binds

Source: article PMC4569848 (Nature Communications, 2015)
